Data from paper doi:10.1101/431106, “The architecture of the endoplasmic reticulum is regulated by the reversible lipid modification of the shaping protein CLIMP-63” (bioRxiv, 2018).
Positions count from the first letter of the chain named. Names and notes keep the numbering of the source.

B1: HA-CLIMP-63 V137C (natural protein, UniProt Q07065 1-602, looked up)
chain: MPSAKQRGSKGGHGAASPSEKGAHPSGGADDVAKKPPPAPQQPPPPPAPHPQQHPQQHPQNQAHGKGGHRGGGGGGGKSSSSSSASAAAAAAAASSSASCSRRLGRALNFLFYLALVAAAAFSGWCVHHVLEEVQQCRRSHQDFSRQREELGQGLQGVEQKVQSLQATFGTFESILRSSQHKQDLTEKAVKQGESEVSRISEVLQKLQNEILKDLSDGIHVVKDARERDFTSLENTVEERLTELTKSINDNIAIFTEVQKRSQKEINDMKAKVASLEESEGNKQDLKALKEAVKEIQTSAKSREWDMEALRSTLQTMESDIYTEVRELVSLKQEQQAFKEAADTERLALQALTEKLLRSEESVSRLPEEIRRLEEELRQLKSDSHGPKEDGGFRHSEAFEALQQKSQGLDSRLQHVEDGVLSMQVASARQTESLESLLSKSQEHEQRLAALQGRLEGLGSSEADQDGLASTVRSLGETQLVLYGDVEELKRSVGELPSTVESLQKVQEQVHTLLSQDQAQAARLPPQDFLDRLSSLDNLKASVSQVEADLKMLRTAVDSLVAYSVKIETNENNLESAKGLLDDLRNDLDRLFVKVEKIHEKV
notes: Made to trap dimers through a disulfide bond; also called V137C CLIMP-63; V137C mutant; source: HeLa (control or ZDHHC6 KO), transfected 24 hours, total cell extracts or immunoprecipitated with HA-beads; not shown: HA, N-terminal, kept
B2: cytoskeleton-linking membrane protein 63 (CLIMP-63), endogenous (natural protein, human (endogenous in HeLa), UniProt Q07065 1-602, looked up)
chain: B1 chain with C137V
modifications: S-palmitoylation on Cys-100 in the majority (87%) of the cellular protein
notes: CLIMP-63 (CKAP4), endogenous protein of HeLa cells; also called CKAP4; source: endogenous, HeLa cells (membrane fraction, total cell extracts, fixed cells)

Legend:
[1] = molecular target: the molecule itself; experiment: cross-linking; disulfide trapping by an engineered cysteine; 35S Cys-Met 20 min pulse, immunoprecipitated using HA-beads, non-reducing SDS-PAGE, autoradiography; control cells and ZDHHC6 KO cells
[2] = molecular target: the molecule itself; experiment: cross-linking; HeLa cells crosslinked 5 min at room temperature with 1mM BMOE, 1mM DSS or 0.025% glutaraldehyde; non-reducing SDS-PAGE, anti-CLIMP-63 blot

Protein	stoichiometry N [1]	stoichiometry N [2]
B1	2	
B2		2
